Paper PMC3458822, “Dimerization of DOCK2 Is Essential for DOCK2-Mediated Rac Activation and Lymphocyte Migration” (PLoS ONE, 2012)
Each block holds one molecule with its values, some of them ahead of it.

Tests used:
[1] = target: murine DOCK2 DHR-2 domain, wild type (murine); assay: SEC; Superdex 200 10/300 GL, 20 mM Tris-HCl pH 8.0, 250 mM NaCl, 5 mM 2-mercaptoethanol, 1 ml/minute, 20°C; size estimated against protein standards
[2] = target: the molecule itself; assay: crystal structure; human DOCK2 DHR-2 in complex with Rac1, PDB 3B13

stoichiometry N [1]: 2
Molecule: murine DOCK2 DHR-2 domain, wild type (domain or fragment)

B1: human DOCK2 DHR-2 domain (domain or fragment)
chain: SKDNRMSCTVNLLNFYKDNNREEMYIRYLYKLRDLHLDCDNYTEAAYTLLLHTWLLKWSDEQCASQVMQTGQQHPQTHRQLKETLYETIIGYFDKGKMWEEAISLCKELAEQYEMEIFDYELLSQNLIQQAKFYESIMKILRPKPDYFAVGYYGQGFPSFLRNKVFIYRGKEYERREDFQMQLMTQFPNAEKMNTTSAPGDDVKNAPGQYIQCFTVQPVLDEHPRFKNKPVPDQIINFYKSNYVQRFHYSRPVRRGTVDPENEFASMWIERTSFVTAYKLPGILRWFEVVHMSQTTISPLENAIETMSTANEKILMMINQYQSDETLPINPLSMLLNGIVDPAVMGGFAKYEKAFFTEEYVRDHPEDQDKLTHLKDLIAWQIPFLGAGIKIHEKRVSDNLRPFHDRMEECFKNLKMKVEKEYGVREM
notes: DOCK2, human, DHR-2 domain (lobes A, B and C) as crystallised with Rac1; Dimerises through lobe A in the crystal
stoichiometry N [2]: 2
